The values that follow come from patent publication US20100092505A1, “Method for Shielding Functional Sites or Epitopes on Proteins” (priority 2005, published 2010).

One data set concerns guinea pigs. The data set is described as follows: ELISA of sera from guinea pigs immunized under homologous and heterologous Prime/Boost regimens. It counts as in vivo. The conditions noted are these: guinea pig serum; prime plus two boosts; PEGylated vaccine in both homologous and heterologous modality; QS21 adjuvant. The method, then:
The Prime/Boost pair is shown below each group of bars. The ELISA geometric mean titers (GMT) against each antigen are a true reflection of the relative amount of antibodies with the corresponding specificity present in the serum.
Immunogenicity of the SMW-PEGylated vaccine—Animal studies were conducted in guinea pigs to compare the antibody response elicited by the non-PEGylated vaccine (CCIZN17)3 and the PEGylated vaccine (CCIPN17)3. The latter was used both in a homologous modality (i.e., using a priming injection with the antigen, followed by two boost injections with the same antigen) and a heterologous modality (i.e., using a priming injection with the non-PEGylated antigen (CCIZN17)3, followed by two boost injections with the PEGylated antigen (CCIPN17)3) (see FIG. 4). The PEGylated antigens were administered to the animals along with QS21 as an adjuvant (Antigenics; New York, N.Y.). Analysis of the immune response was performed by ELISA. To eliminate any bias due to differences in the absorption capacity of the antigens on the ELISA plate, all the capture antigens were biotinylated, and the ELISA plate was coated with streptavidin prior to the addition of the capture biotinylated molecules. […] This is identical in (CCIZN17)3 and (CCIPN17)3 and, accordingly, the measured GMT are identical when measured against either antigen.
A general note: An ELISA detects its analyte on a solid surface through an enzyme-linked reagent.

For data set [1] the following is noted: disulfide-linked trimer; refers to U.S. Provisional Applications 60/576,062 and 60/636,724; cited from earlier work.
In the next data set the test system is patients. The conditions noted are these: cited from earlier work.
Data set [2] is described as follows: Isoelectric point (pI) of chimeric peptides and gp41 mimetics. It is filed as physicochemical.

Where no end group is shown, it is not given here.

For “(CCGGIKKEIEAIKKEQEAIKKKIEAIEKLLQLTVWGIKQLQARIL)3 (not fully specified (N-terminus, C-terminus, bridges); printed as (CCGGIKKEIEAIKKEQEAIKKKIEAIEKLLQLTVWGIKQLQARIL)3; also: disulfide-linked trimer) [(CCIZN17)3]”, the “antibody response against the scaffold moiety (ELISA GMT, capture antigens (Biotin-CCIZ)3 and (Biotin-CCIP)3)” value in the data set with guinea pigs is “comparable amounts against the whole antigen and the scaffold moiety alone”. In data set [1], the “stability relative to the non-covalent IZN17 trimeric coiled-coil” value is “more stable than the original IZN17 trimeric coiled-coil”.
“AN-1792: Elan/Wyeth Aβ 1-42 peptide vaccine for Alzheimer disease, clinical trial discontinued”: the “therapeutic effect in the clinical trial” value in the data set with patients (patients with high titers of Aβ antibodies) was “reduction of plaque and some limited stabilization of memory”. Moreover, in the data set on patients (patients, attributed to a T-cell response to the COOH-terminal region of Aβ), the “adverse effect that led to discontinuation of the clinical trial” value is reported as “severe brain inflammation problems”. Further, the “induction of antibodies specific for the pathological form of Aβ” value with patients (vaccinated patients) was “induced in the majority of patients”.
In data set [2] (Table 6, gp41 mimetics), “(CCGGIEKKIEEIEKKIEEIEKKIEEIEKLLQLTVWGIKQLQARIL)3 [(CCEZN17)3]” gave a pI of 5.30.
The substance “IEKKIEEIEKKIEEIEKKIEEIEKLLQLTVWGIKQLQARIL [EZN17]” came in with a pI in data set [2] (chimeric N-peptide) of 5.2.
Still for that read-out and setting: the value for “IKKEIEAIKKEQEAIKKKIEAIEKLLQLTVWGIKQLQARIL [IZN17]” was 10.7.
